Assay results reported in patent publication US20210388087A1 (Chugai, published 2021).
Changes are numbered by the printed parent chain. Names and notes keep the numbering of the source. Each block holds one binder with its values, some of them ahead of it.

Biological target: T1, Human CD3eg linker (human)
T1 construct: Single-chain construct; also called recombinant human CD3
T1 chain: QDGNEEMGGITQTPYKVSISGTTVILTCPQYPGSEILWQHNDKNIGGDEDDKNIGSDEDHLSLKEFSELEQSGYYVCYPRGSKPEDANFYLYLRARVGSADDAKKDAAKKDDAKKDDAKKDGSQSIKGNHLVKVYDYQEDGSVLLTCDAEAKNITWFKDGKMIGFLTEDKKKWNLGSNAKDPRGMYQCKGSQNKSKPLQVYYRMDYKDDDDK
Experiment: SPR; fold vs parent H183/L072

B1: H183/L072 VL H27dF (antibody, name in Kabat numbering, V domains shown)
VH: QVQLVESGGGLVQPGRSLRLSCAASGFTFSNAWMHWVRQAPGKGLEWVAQIKDKGNAYAAYYAPSVKGRFTISRDDSKNSIYLQMNSLKTEDTAVYYCHYVHYASASTVLPAFGVDAWGQGTTVTVSS
VL: DIVMTQSPLSLPVTPGEPASISCQASQELVFMNRNTYLHWYQQKPGQAPRLLIYKVSNRFPGVPDRFSGSGSGTDFTLKISRVEAEDVGVYYCAQGTSVPFTFGQGTKLEIK
- fold change of affinity: 0.2 fold

B2: H183/L072 VL H27dT (antibody, name in Kabat numbering, V domains shown)
VH: B1 VH
VL: B1 VL with F31T
- fold change of affinity: 0 fold

B5: H183/L072 VL H27dQ (antibody, name in Kabat numbering, V domains shown)
VH: B1 VH
VL: B1 VL with F31Q
- fold change of affinity: 0 fold

B8: H183/L072 VL H27dG (antibody, name in Kabat numbering, V domains shown)
VH: B1 VH
VL: B1 VL with F31G
- fold change of affinity: 0 fold

B12: H183/L072 VL K50S (antibody, name in Kabat numbering, V domains shown)
VH: B1 VH
VL: B1 VL with F31H, K55S
- fold change of affinity: 0 fold

B16: H183/L072 VL L27bP (antibody, name in Kabat numbering, V domains shown)
VH: B1 VH
VL: B1 VL with L29P, F31H
- fold change of affinity: 1.8 fold

B18: H183/L072 VL L33M (antibody, name in Kabat numbering, V domains shown)
VH: B1 VH
VL: B1 VL with F31H, L38M
- fold change of affinity: 1.1 fold

B22: H183/L072 VL K50R (antibody, name in Kabat numbering, V domains shown)
VH: B1 VH
VL: B1 VL with F31H, K55R
- fold change of affinity: 0 fold

B23: H183/L072 VL H27dK (antibody, name in Kabat numbering, V domains shown)
VH: B1 VH
VL: B1 VL with F31K
- fold change of affinity: 0 fold

B25: H183/L072 VL H34N (antibody, name in Kabat numbering, V domains shown)
VH: B1 VH
VL: B1 VL with F31H, H39N
- fold change of affinity: 0.2 fold

B26: H183/L072 VL L27bF (antibody, name in Kabat numbering, V domains shown)
VH: B1 VH
VL: B1 VL with L29F, F31H
- fold change of affinity: 0.3 fold

B28: H183/L072 VL L27bI (antibody, name in Kabat numbering, V domains shown)
VH: B1 VH
VL: B1 VL with L29I, F31H
- fold change of affinity: 0.5 fold

B30: H183/L072 VL L27bD (antibody, name in Kabat numbering, V domains shown)
VH: B1 VH
VL: B1 VL with L29D, F31H
- fold change of affinity: 0 fold

B31: H183/L072 VL H34Q (antibody, name in Kabat numbering, V domains shown)
VH: B1 VH
VL: B1 VL with F31H, H39Q
- fold change of affinity: 0 fold

B35: H183/L072 VL L27bV (antibody, name in Kabat numbering, V domains shown)
VH: B1 VH
VL: B1 VL with L29V, F31H
- fold change of affinity: 1.7 fold

B38: H183/L072 VL K50H (antibody, name in Kabat numbering, V domains shown)
VH: B1 VH
VL: B1 VL with F31H, K55H
- fold change of affinity: 0 fold

B39: H183/L072 VL L33A (antibody, name in Kabat numbering, V domains shown)
VH: B1 VH
VL: B1 VL with F31H, L38A
- fold change of affinity: 0.6 fold

B44: H183/L072 VL L33H (antibody, name in Kabat numbering, V domains shown)
VH: B1 VH
VL: B1 VL with F31H, L38H
- fold change of affinity: 1.4 fold

The next lines start with the values.

- fold change of affinity: 0 fold
B3: H183/L072 VL L33E (antibody, name in Kabat numbering, V domains shown)
VH: B1 VH
VL: B1 VL with F31H, L38E

- fold change of affinity: 0.6 fold
B4: H183/L072 VL L27bT (antibody, name in Kabat numbering, V domains shown)
VH: B1 VH
VL: B1 VL with L29T, F31H

- fold change of affinity: 0.5 fold
B6: H183/L072 VL H34S (antibody, name in Kabat numbering, V domains shown)
VH: B1 VH
VL: B1 VL with F31H, H39S

- fold change of affinity: 0 fold
B7: H183/L072 VL H34E (antibody, name in Kabat numbering, V domains shown)
VH: B1 VH
VL: B1 VL with F31H, H39E

- fold change of affinity: 1.1 fold
B9: H183/L072 VL L33F (antibody, name in Kabat numbering, V domains shown)
VH: B1 VH
VL: B1 VL with F31H, L38F

- fold change of affinity: 0 fold
B10: H183/L072 VL H27dN (antibody, name in Kabat numbering, V domains shown)
VH: B1 VH
VL: B1 VL with F31N

- fold change of affinity: 0 fold
B11: H183/L072 VL H34L (antibody, name in Kabat numbering, V domains shown)
VH: B1 VH
VL: B1 VL with F31H, H39L

- fold change of affinity: 0 fold
B13: H183/L072 VL L27bS (antibody, name in Kabat numbering, V domains shown)
VH: B1 VH
VL: B1 VL with L29S, F31H

- fold change of affinity: 0.3 fold
B14: H183/L072 VL H34G (antibody, name in Kabat numbering, V domains shown)
VH: B1 VH
VL: B1 VL with F31H, H39G

- fold change of affinity: 0 fold
B15: H183/L072 VL L33D (antibody, name in Kabat numbering, V domains shown)
VH: B1 VH
VL: B1 VL with F31H, L38D

- fold change of affinity: 0 fold
B17: H183/L072 VL K50E (antibody, name in Kabat numbering, V domains shown)
VH: B1 VH
VL: B1 VL with F31H, K55E

- fold change of affinity: 0 fold
B19: H183/L072 VL L27bN (antibody, name in Kabat numbering, V domains shown)
VH: B1 VH
VL: B1 VL with L29N, F31H

- fold change of affinity: 0 fold
B20: H183/L072 VL K50T (antibody, name in Kabat numbering, V domains shown)
VH: B1 VH
VL: B1 VL with F31H, K55T

- fold change of affinity: 0.7 fold
B21: H183/L072 VL L27bM (antibody, name in Kabat numbering, V domains shown)
VH: B1 VH
VL: B1 VL with L29M, F31H

- fold change of affinity: 0.6 fold
B24: H183/L072 VL H34A (antibody, name in Kabat numbering, V domains shown)
VH: B1 VH
VL: B1 VL with F31H, H39A

- fold change of affinity: 0 fold
B27: H183/L072 VL L27bK (antibody, name in Kabat numbering, V domains shown)
VH: B1 VH
VL: B1 VL with L29K, F31H

- fold change of affinity: 0 fold
B29: H183/L072 VL K50D (antibody, name in Kabat numbering, V domains shown)
VH: B1 VH
VL: B1 VL with F31H, K55D

- fold change of affinity: 0 fold
B32: H183/L072 VL L27bQ (antibody, name in Kabat numbering, V domains shown)
VH: B1 VH
VL: B1 VL with L29Q, F31H

- fold change of affinity: 0 fold
B33: H183/L072 VL L27bE (antibody, name in Kabat numbering, V domains shown)
VH: B1 VH
VL: B1 VL with L29E, F31H

- fold change of affinity: 0 fold
B34: H183/L072 VL H27dS (antibody, name in Kabat numbering, V domains shown)
VH: B1 VH
VL: B1 VL with F31S

- fold change of affinity: 0 fold
B36: H183/L072 VL L33G (antibody, name in Kabat numbering, V domains shown)
VH: B1 VH
VL: B1 VL with F31H, L38G

- fold change of affinity: 0.7 fold
B37: H183/L072 VL L27bA (antibody, name in Kabat numbering, V domains shown)
VH: B1 VH
VL: B1 VL with L29A, F31H

- fold change of affinity: 0.4 fold
B40: H183/L072 VL H34T (antibody, name in Kabat numbering, V domains shown)
VH: B1 VH
VL: B1 VL with F31H, H39T

- fold change of affinity: 0 fold
B41: H183/L072 VL L33K (antibody, name in Kabat numbering, V domains shown)
VH: B1 VH
VL: B1 VL with F31H, L38K

- fold change of affinity: 0 fold
B42: H183/L072 VL H34D (antibody, name in Kabat numbering, V domains shown)
VH: B1 VH
VL: B1 VL with F31H, H39D

- fold change of affinity: 0.4 fold
B43: H183/L072 VL H34K (antibody, name in Kabat numbering, V domains shown)
VH: B1 VH
VL: B1 VL with F31H, H39K

- fold change of affinity: 0 fold
B45: H183/L072 VL L27bH (antibody, name in Kabat numbering, V domains shown)
VH: B1 VH
VL: B1 VL with L29H, F31H
